From PMC5418834, “Structural analysis of X-linked retinoschisis mutations reveals distinct classes which differentially effect retinoschisin function” (Human Molecular Genetics, 2016) come the findings set out here.

Data set [1] addresses wild-type human retinoschisin (human) (UniProt O15537). Nature of the data set: native gel or EMSA; blue-native PAGE and native blot of purified retinoschisin (H207Q at ~0.1 mg/ml).
Data set [2] has the same target. Nature of the data set: SEC-MALS; octamer fraction; 10 mM Tris pH 7.4, 150 mM NaCl.
Data set [3] shares this target. Nature of the data set: AUC; sedimentation velocity of the octamer fraction, ~0.1 mg/ml, 10 mM Tris pH 7.4, 150 mM NaCl, 20°C, 45,000 rpm.
Data set [4] shares this target. Nature of the data set: negative-stain EM; 20 µg/ml octamer on carbon coated grids, uranyl acetate, reference-free class averages.
Data set [5] has the same target. Put plainly: cryo-EM structure; 0.1 mg/ml of octamer vitrified on C-Flat R2/2 grids; C8 (wild type) or D8 (R141H) symmetry.
Data set [6] concerns the molecule itself. Nature of the data set: SEC-MALS; octamer fraction; 10 mM Tris pH 7.4, 150 mM NaCl.
Data set [7] concerns the molecule itself. Put plainly: native gel or EMSA; blue-native PAGE and native blot of purified retinoschisin (H207Q at ~0.1 mg/ml).
Data set [8] concerns the molecule itself. Put plainly: negative-stain EM; 20 µg/ml octamer on carbon coated grids, uranyl acetate, reference-free class averages.

Values joined by “and” are separate entries in the source; they are usually repeats but may differ in a detail not shown here. Identical values can stand only once.

On to “wild-type human retinoschisin (from UniProt O15537 24-224) (natural protein)”, for which the stoichiometry N was 8 and 16 in data set [1]; 8 in data set [2]; 8 in data set [3]; 8 in data set [4]; 8 and 16 in data set [5].

B1: R141H human retinoschisin (natural protein, UniProt O15537 24-224, looked up)
chain: STEDEGEDPWYQKACKCDCQGGPNALWSAGATSLDCIPECPYHKPLGFESGEVTPDQITCSNPEQYVGWYSSWTANKARLNSQGFGCAWLSKFQDSSQWLQIDLKEIKVISGILTQGHCDIDEWMTKYSVQYRTDERLNWIYYKDQTGNNRVFYGNSDRTSTVQNLLRPPIISRFIRLIPLGWHVRIAIRMELLECVSKCA
notes: retinoschisin, human, product of the RS1 gene, with the XLRS-associated mutation R141H; Disease-causing (XLRS) mutation that occurs in patients; Same construct as m1 apart from the mutation; also called R141H retinoschisin; R141H mutant
B1: the entries for the “stoichiometry N” value in data set [6] and in data set [7] were 8 and 16, respectively.

B2: H207Q human retinoschisin (natural protein, UniProt O15537 24-224, looked up)
chain: STEDEGEDPWYQKACKCDCQGGPNALWSAGATSLDCIPECPYHKPLGFESGEVTPDQITCSNPEQYVGWYSSWTANKARLNSQGFGCAWLSKFQDSSQWLQIDLKEIKVISGILTQGRCDIDEWMTKYSVQYRTDERLNWIYYKDQTGNNRVFYGNSDRTSTVQNLLRPPIISRFIRLIPLGWQVRIAIRMELLECVSKCA
notes: retinoschisin, human, product of the RS1 gene, with the XLRS-associated mutation H207Q; Disease-causing (XLRS) mutation that occurs in patients; Same construct as m1 apart from the mutation; also called H207Q retinoschisin; H207Q mutant
As for B2, the figures for the “stoichiometry N” value in data set [8] and in data set [7] were 8 and 16, respectively.
